# From IntAct's records for PubMed 21134644
# How the values were obtained:
# itb1_human ITGB1 = itb1_human ITGB1 (UniProt P05556)
# Chain of itb1_human ITGB1 (P05556 whole entry): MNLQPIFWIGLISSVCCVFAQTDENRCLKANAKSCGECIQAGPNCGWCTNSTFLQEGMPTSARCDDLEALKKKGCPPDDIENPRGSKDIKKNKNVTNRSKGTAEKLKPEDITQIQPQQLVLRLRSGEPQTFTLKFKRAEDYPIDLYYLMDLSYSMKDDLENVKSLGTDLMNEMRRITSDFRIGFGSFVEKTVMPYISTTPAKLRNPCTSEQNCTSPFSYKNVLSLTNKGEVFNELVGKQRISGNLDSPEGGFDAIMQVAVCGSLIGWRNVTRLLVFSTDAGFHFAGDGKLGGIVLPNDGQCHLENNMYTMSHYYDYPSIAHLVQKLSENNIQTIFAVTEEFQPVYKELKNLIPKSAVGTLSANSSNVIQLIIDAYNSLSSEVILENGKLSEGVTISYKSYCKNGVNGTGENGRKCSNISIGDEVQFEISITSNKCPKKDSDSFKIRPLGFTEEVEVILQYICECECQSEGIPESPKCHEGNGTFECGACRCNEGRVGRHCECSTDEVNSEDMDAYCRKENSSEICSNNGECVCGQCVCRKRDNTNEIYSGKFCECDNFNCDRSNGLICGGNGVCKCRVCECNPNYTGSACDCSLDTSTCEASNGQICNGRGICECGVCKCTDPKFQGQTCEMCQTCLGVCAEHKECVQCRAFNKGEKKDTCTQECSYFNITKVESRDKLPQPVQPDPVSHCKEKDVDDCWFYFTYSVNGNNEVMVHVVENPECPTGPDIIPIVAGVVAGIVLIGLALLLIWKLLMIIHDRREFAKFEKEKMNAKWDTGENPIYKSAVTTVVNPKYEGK
# Chain of ITGB1, P05556-5 (P05556 other isoform, or with tags, fused parts or gaps): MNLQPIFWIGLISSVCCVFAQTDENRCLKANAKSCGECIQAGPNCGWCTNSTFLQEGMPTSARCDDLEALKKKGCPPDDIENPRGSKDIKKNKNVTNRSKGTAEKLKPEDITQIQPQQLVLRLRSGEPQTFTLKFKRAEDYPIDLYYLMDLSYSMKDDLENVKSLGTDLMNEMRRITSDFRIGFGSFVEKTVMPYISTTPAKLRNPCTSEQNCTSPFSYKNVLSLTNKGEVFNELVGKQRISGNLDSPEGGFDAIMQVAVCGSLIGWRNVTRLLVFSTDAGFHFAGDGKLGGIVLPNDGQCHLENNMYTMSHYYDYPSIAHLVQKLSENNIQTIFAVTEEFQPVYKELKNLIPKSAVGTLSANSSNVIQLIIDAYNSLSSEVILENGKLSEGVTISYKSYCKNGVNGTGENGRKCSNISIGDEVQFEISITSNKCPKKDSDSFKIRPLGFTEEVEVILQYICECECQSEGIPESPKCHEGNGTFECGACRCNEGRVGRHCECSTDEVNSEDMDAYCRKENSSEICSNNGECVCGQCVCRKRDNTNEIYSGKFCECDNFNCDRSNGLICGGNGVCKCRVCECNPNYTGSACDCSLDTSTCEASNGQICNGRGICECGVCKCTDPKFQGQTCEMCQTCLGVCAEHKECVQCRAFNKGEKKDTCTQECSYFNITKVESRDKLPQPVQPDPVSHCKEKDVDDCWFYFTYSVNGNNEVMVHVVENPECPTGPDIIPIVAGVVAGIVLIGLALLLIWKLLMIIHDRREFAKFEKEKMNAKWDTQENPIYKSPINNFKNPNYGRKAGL
substance,measurement,setting,value
"Talin-2 (Mus musculus), Q71LX4 Y376A",effect of a mutation on the interaction,"ITGB1, P05556-5",decreasing interaction
same,effect of a mutation on the interaction,itb1_human ITGB1,disrupting interaction
